Test results reported in paper PMC2120686.
Values joined by “and” are separate entries in the source; they are usually repeats but may differ in a detail not shown here. Equal entries are not always repeated.

Legend:
titin (rabbit) [1] = test: ELISA
titin (rabbit) [2] = test: light scattering
dansylated LMM (rabbit) = test: fluorescence polarisation
[3] = target: light meromyosin (LMM) (rabbit); test: electron microscopy
[4] = target: J peptide (15-kD CNBr fragment of LMM) (rabbit); test: ELISA
[5] = target: K peptide (30-kD CNBr fragment of LMM) (rabbit); test: ELISA
[6] = target: light meromyosin (LMM) (rabbit); test: ELISA

J peptide (15-kD CNBr fragment of LMM) (domain or fragment)
maximum inhibition of titin binding to LMM (titin (rabbit) [1]): 60%

light meromyosin (LMM) (domain or fragment)
stoichiometry N (titin (rabbit) [2]): 25 to 50

titin (natural protein)
Kd (dansylated LMM (rabbit)): 15 nM | molecular-binding constant (dansylated LMM (rabbit)): 400 nM | percent of molecules closely associated [3]: 20% | Kd [4]: 30 nM and 20 nM | fold lower affinity than the 15-kD peptide [5]: 100 fold | Kd [6]: 12 nM
